# Residue numbers refer to the chain shown, from its start.
# T1: AP2-LT D1 (Plasmodium falciparum, UniProt Q8IAM1 2520-2577)
# T1 sequence: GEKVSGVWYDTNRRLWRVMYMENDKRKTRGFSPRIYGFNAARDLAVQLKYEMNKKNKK
# T2: AP2-G D1 (Plasmodium falciparum, UniProt Q8I5I9 2123-2245)
# T2 sequence: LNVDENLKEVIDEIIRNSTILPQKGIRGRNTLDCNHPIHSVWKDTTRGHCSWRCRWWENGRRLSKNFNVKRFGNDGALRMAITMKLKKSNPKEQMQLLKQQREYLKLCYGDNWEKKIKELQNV
# B1: CACACA_site3541 (dsDNA)
# DNA 1: GGAATAACCAGACACACACACACATATATATATATA
# DNA 2: TATATATATATATGTGTGTGTGTGTCTGGTTATTCC
# B2: CACACA_site5248 (dsDNA)
# DNA 1: CACAGACACGGACACACACACATATATATATATATA
# DNA 2: TATATATATATATATGTGTGTGTGTCCGTGTCTGTG
# B3: CACACA_site5249 (dsDNA)
# DNA 1: B2 DNA 1 with A2G, G5C, C7G, T23C
# DNA 2: B2 DNA 2 with A14G, G30C, C32G, T35C
# B4: CACACA_site5894 (dsDNA)
# DNA 1: B2 DNA 1 with C1A, C3A, A6G, C7A
# DNA 2: B2 DNA 2 with G30T, T31C, G34T, G36T
# B5: CACACA_site4488 (dsDNA)
# DNA 1: B2 DNA 1 with C1T, G5A, C7T, C9T
# DNA 2: B2 DNA 2 with G28A, G30A, C32T, G36A
# B6: CACACA_site3394 (dsDNA)
# DNA 1: B2 DNA 1 with C1A, C9G, G10A, G11A
# DNA 2: B2 DNA 2 with C26T, C27T, G28C, G36T
# B7: CACACA_site5883 (dsDNA)
# DNA 1: B2 DNA 1 with C1T, G5T
# DNA 2: B2 DNA 2 with C32A, G36A
# B8: CACACA_site8012 (dsDNA)
# DNA 1: ACATCAAGCAGACACACACACACACCCACCCACCCA
# DNA 2: TGGGTGGGTGGGTGTGTGTGTGTGTCTGCTTGATGT
# B9: CACACA_site2202 (dsDNA)
# DNA 1: CGCACCCACAGACACACACACACATATATATATATA
# DNA 2: TATATATATATATGTGTGTGTGTGTCTGTGGGTGCG
# B10: CACACA_site6446 (dsDNA)
# DNA 1: TACACGCATAGACACACACACACACGCATATAAATA
# DNA 2: TATTTATATGCGTGTGTGTGTGTGTCTATGCGTGTA
# B11: CACACA_site2919 (dsDNA)
# DNA 1: TACATACAGAAACACACACACACATATATATATATA
# DNA 2: TATATATATATATGTGTGTGTGTGTTTCTGTATGTA
# B12: CACACA_site3654 (dsDNA)
# DNA 1: B11 DNA 1 with T1A, C3A, T5A, G9A
# DNA 2: B11 DNA 2 with C28T, A32T, G34T, A36T
# B13: CACACA_site5884 (dsDNA)
# DNA 1: AATACATACGGACACACACACACATATATATATATA
# DNA 2: TATATATATATATGTGTGTGTGTGTCCGTATGTATT
# B14: CACACA_site906 (dsDNA)
# DNA 1: B13 DNA 1 with T3A, A4G, C5G, G10A
# DNA 2: B13 DNA 2 with C27T, G32C, T33C, A34T
# B15: CACACA_site5272 (dsDNA)
# DNA 1: B13 DNA 1 with A1T, T7G, C9T, C23T
# DNA 2: B13 DNA 2 with G14A, G28A, A30C, T36A
# B16: CACACA_site8840 (dsDNA)
# DNA 1: ATAAATAAAGGACACACACACACACTAATAAAAAAA
# DNA 2: TTTTTTTATTAGTGTGTGTGTGTGTCCTTTATTTAT
# B17: CACACA_site7645 (dsDNA)
# DNA 1: AAAAAAAATACATACACACACACACGCACATATATA
# DNA 2: TATATATGTGCGTGTGTGTGTGTATGTATTTTTTTT
# B18: CACACA_site8067 (dsDNA)
# DNA 1: AACAAATACAGACACACACACACACTAATAAAAAAA
# DNA 2: TTTTTTTATTAGTGTGTGTGTGTGTCTGTATTTGTT
# B19: CACACA_site6426 (dsDNA)
# DNA 1: GGCATACACGAACACACACACACACGCACATATATA
# DNA 2: TATATATGTGCGTGTGTGTGTGTGTTCGTGTATGCC
# B20: CACACA_site5252 (dsDNA)
# DNA 1: AACACGCGCGGACACACACACACACCCACATATATA
# DNA 2: TATATATGTGGGTGTGTGTGTGTGTCCGCGCGTGTT
# B21: CACACA_site4355 (dsDNA)
# DNA 1: B20 DNA 1 with A1C, C5G, G6A, G8A
# DNA 2: B20 DNA 2 with C29T, C31T, G32C, T36G
# B22: CACACA_site5247 (dsDNA)
# DNA 1: AGGATATGCGGACACACACACATATATATATATATA
# DNA 2: TATATATATATATATGTGTGTGTGTCCGCATATCCT
# B23: XGTACX_negctrl_site244 (dsDNA)
# DNA 1: AAAAATATGAAGACACAATATAGAAATAAAAATATA
# DNA 2: TATATTTTTATTTCTATATTGTGTCTTCATATTTTT
# B24: XGTACX_negctrl_site317 (dsDNA)
# DNA 1: TTATATTCTTTTCTCTTTCTACTTTTTTTTTTTTTT
# DNA 2: AAAAAAAAAAAAAAGTAGAAAGAGAAAAGAATATAA
# B25: XGTACX_negctrl_site35 (dsDNA)
# DNA 1: TTTTGACTAATATAATATGTTAAGAATTAATAAATA
# DNA 2: TATTTATTAATTCTTAACATATTATATTAGTCAAAA
# B26: XGTACX_negctrl_site191 (dsDNA)
# DNA 1: TTTTTAAAAAATAAGAAAAAATAAATATATTACAAA
# DNA 2: TTTGTAATATATTTATTTTTTCTTATTTTTTAAAAA
# B27: XGTACX_negctrl_site183 (dsDNA)
# DNA 1: TATTTTTCTTTTTAAAAATATATCACATGAACATTA
# DNA 2: TAATGTTCATGTGATATATTTTTAAAAAGAAAAATA
# B28: XGTACX_negctrl_site604 (dsDNA)
# DNA 1: ATAAATCGATAAAATATATGCTACATGAATAAATAA
# DNA 2: TTATTTATTCATGTAGCATATATTTTATCGATTTAT
# B29: XGTACX_negctrl_site541 (dsDNA)
# DNA 1: TTGTCAAAAATTACACACATAAATGAATAAATAAAT
# DNA 2: ATTTATTTATTCATTTATGTGTGTAATTTTTGACAA
# B30: XGTACX_negctrl_site385 (dsDNA)
# DNA 1: TACTTCTCATTTGTTGTTGTATTTTAGGCATACCCT
# DNA 2: AGGGTATGCCTAAAATACAACAACAAATGAGAAGTA
# B31: XGTACX_negctrl_site291 (dsDNA)
# DNA 1: TTTTTTATATTTAAACTTCACATGGTTTTCATTTAT
# DNA 2: ATAAATGAAAACCATGTGAAGTTTAAATATAAAAAA
# B32: XGTACX_negctrl_site451 (dsDNA)
# DNA 1: AACAAATAAAAAAAAATAAAAATAAAAATAAAAAAA
# DNA 2: TTTTTTTATTTTTATTTTTATTTTTTTTTATTTGTT
# B33: XGTACX_negctrl_site343 (dsDNA)
# DNA 1: B32 DNA 1 with C3T, T17A, T23A, T29A
# DNA 2: B32 DNA 2 with A8T, A14T, A20T, G34A
# B34: XGTACX_negctrl_site59 (dsDNA)
# DNA 1: AATATTACGTGTTTGGTATTTTTCGATGTTGGCAGG
# DNA 2: CCTGCCAACATCGAAAAATACCAAACACGTAATATT
# B35: XGTACX_negctrl_site369 (dsDNA)
# DNA 1: TTTTTTTTTAATAAAATTATAATAAATATGAAATTA
# DNA 2: TAATTTCATATTTATTATAATTTTATTAAAAAAAAA
# B36: XGTACX_negctrl_site493 (dsDNA)
# DNA 1: CATATATAAATATAAATATATATATATATATATATG
# DNA 2: B36 DNA 1 with A9T, A15T, A22T, A28T
# B37: XGTACX_negctrl_site580 (dsDNA)
# DNA 1: ATACAAATTAAGCCTCAAGTTCTTTTTTTTAACATA
# DNA 2: TATGTTAAAAAAAAGAACTTGAGGCTTAATTTGTAT
# B38: XGTACX_negctrl_site26 (dsDNA)
# DNA 1: TATAATTTTTTTGAATTATATATATATATATATAAT
# DNA 2: ATTATATATATATATATATAATTCAAAAAAATTATA
# B39: XGTACX_negctrl_site394 (dsDNA)
# DNA 1: AGGTGAAAAATATATAATAATGTAACAAAAAAAAAT
# DNA 2: ATTTTTTTTTGTTACATTATTATATATTTTTCACCT
# B40: XGTACX_negctrl_site600 (dsDNA)
# DNA 1: TTGAAATATACGTAAGTAAATTTCATTTGGTTGTGT
# DNA 2: ACACAACCAAATGAAATTTACTTACGTATATTTCAA
# B41: XGTACX_negctrl_site521 (dsDNA)
# DNA 1: ATGTTATAAATCTTAATATATATATGCAAAAGAGAA
# DNA 2: TTCTCTTTTGCATATATATATTAAGATTTATAACAT
# B42: XGTACX_negctrl_site591 (dsDNA)
# DNA 1: TTTTTATATAACCTTCTTAATTCTTTTTTTTTTTTT
# DNA 2: AAAAAAAAAAAAAGAATTAAGAAGGTTATATAAAAA
# Target: T1, AP2-LT D1
# Test: gcPBM; about 25 ug protein; PBS, 1% milk, 0.2 mg/ml BSA, salmon testes DNA, 0.03% Triton X-100
# Conditions: tags: N-terminal GST (pGEX-4T-1), kept; label: surface-attached array probe
row,Binder,binding signal
1,B1,"10.7 ln median PBM intensity, better of two orientations"
2,B2,"10.9 ln median PBM intensity, better of two orientations"
3,B3,"10.7 ln median PBM intensity, better of two orientations"
4,B4,"10.7 ln median PBM intensity, better of two orientations"
5,B5,"10.7 ln median PBM intensity, better of two orientations"
6,B6,"10.7 ln median PBM intensity, better of two orientations"
7,B7,"10.8 ln median PBM intensity, better of two orientations"
8,B8,"10.8 ln median PBM intensity, better of two orientations"
9,B9,"10.8 ln median PBM intensity, better of two orientations"
10,B10,"10.7 ln median PBM intensity, better of two orientations"
11,B11,"10.8 ln median PBM intensity, better of two orientations"
12,B12,"10.7 ln median PBM intensity, better of two orientations"
13,B13,"10.7 ln median PBM intensity, better of two orientations"
14,B14,"10.7 ln median PBM intensity, better of two orientations"
15,B15,"10.7 ln median PBM intensity, better of two orientations"
16,B16,"10.7 ln median PBM intensity, better of two orientations"
17,B17,"10.7 ln median PBM intensity, better of two orientations"
18,B18,"10.8 ln median PBM intensity, better of two orientations"
19,B19,"10.7 ln median PBM intensity, better of two orientations"
20,B20,"10.7 ln median PBM intensity, better of two orientations"
21,B21,"10.7 ln median PBM intensity, better of two orientations"
22,B22,"10.7 ln median PBM intensity, better of two orientations"

# Target: T2, AP2-G D1
# Test: as above
# Conditions: tags: N-terminal GST (pGEX-4T-1), kept; label: surface-attached array probe
row,Binder,binding signal
1,B23,"9.84 ln median PBM intensity, better of two orientations"
2,B24,"9.85 ln median PBM intensity, better of two orientations"
3,B25,"9.84 ln median PBM intensity, better of two orientations"
4,B26,"9.86 ln median PBM intensity, better of two orientations"
5,B27,"9.84 ln median PBM intensity, better of two orientations"
6,B28,"9.88 ln median PBM intensity, better of two orientations"
7,B29,"9.88 ln median PBM intensity, better of two orientations"
8,B30,"9.85 ln median PBM intensity, better of two orientations"
9,B31,"9.85 ln median PBM intensity, better of two orientations"
10,B32,"9.85 ln median PBM intensity, better of two orientations"
11,B33,"9.85 ln median PBM intensity, better of two orientations"
12,B34,"9.87 ln median PBM intensity, better of two orientations"
13,B35,"9.84 ln median PBM intensity, better of two orientations"
14,B36,"9.85 ln median PBM intensity, better of two orientations"
15,B37,"9.88 ln median PBM intensity, better of two orientations"
16,B38,"9.84 ln median PBM intensity, better of two orientations"
17,B39,"9.88 ln median PBM intensity, better of two orientations"
18,B40,"9.84 ln median PBM intensity, better of two orientations"
19,B41,"9.88 ln median PBM intensity, better of two orientations"
20,B42,"9.85 ln median PBM intensity, better of two orientations"
